Source: patent US20220356229A1 (published 2022)

molecular target: SARS-CoV Spike protein (SARS-CoV, UniProt P59594 14-1190); assay: not given

Row | Binder | bead binding signal (fold over isotype control)
1 | antibody 444 (antibody, V domains shown) VH: QVQLVESGGGLVKPGGSLRLSCAASGFTFSDYYMSWIRQAPGKGLEWVSYISSSGSTIYYADSVKGRFTISRDNAKNSLYLQMNSLRAEDTAVYYCARERKVVVAATRNYYYYYGMDVWGQGTTVTVSS VL: SYELTQPPSVSVSPGQTARITCSGDALPKQYAYWYQQKPGQAPVLVIYKDSERPSGIPERFSGSSSGTTVTLTISGVQAEDEADYYCQSADSSTWVFGGGTKLTVL | 1
2 | antibody 439 (antibody, V domains shown) VH: QVQLVESGGGVVQPGRSLRLSCAASGFTFSSYAMHWVRQAPGKGLEWVAVISYDGSNKYYADSVKGRFTISRDNSKNTLYLQMNSLRAEDTAVYYCARPPRGGSYYPFDPWGQGTLVTVSS VL: not shown | 1.23
3 | antibody 446 (antibody, V domains shown) VH: QVQLVESGGGVVQPGRSLRLSCAASGFTFSSYAMHWVRQAPGKGLEWVAVISYDGSNKYYADSVKGRFTISRDNSKNTLYLQMNSLRAEDTAVYYCARPNSGSYFGYFQHWGQGTLVTVSS VL: QSVLTQPPSVSGAPGQRVTISCTGSSSNIGAGYDVHWYQQLPGTAPKLLIYGNSNRPSGVPDRFSGSKSGTSASLAITGLQAEDEADYYCQSYDSSLSGFYVFGTGTKVTVL | 6.58
4 | antibody 470 (antibody, V domains shown) VH: not shown VL: QSALTQPASVSGSPGQSITISCTGTSSDVGSYNLVSWYQQHPGKAPKLMIYEVSKRPSGVSNRFSGSKSGNTASLTISGLQAEDEADYYCCSYAGSSTLVFGGGTKLTVL | 1.09
5 | antibody 485 (antibody, V domains shown) VH: QVQLQESGPGLVKPSGTLSLTCAVSGASISSSNWWSWVRQPPGKGLEWIGEIYHSGSTNYNPSLKSRVTISVDKSKNQFSLKLSSVTAADTAVYYCARRSYYGSGSYYPFDYWGQGTLVTVSS VL: QSALTQPASVSGSPGQSITISCTGTSSDVGSYNLVSWYQQHPGKAPKLMIYEGRKRPSGVSNRFSGSKSGNTASLTISGLQAEDEADYYCCSYAGSSTYVFGTGTKVTVL | 1.12
6 | antibody 476 (antibody, V domains shown) VH: QVQLVQSGSELKKPGASVKVSCKASGYTFTSYAMNWVRQAPGQGLEWMGWINTNTGNPTYAQGFTGRFVFSLDTSVSTAYLQISSLKAEDTGVYYCARDHELPNSSSWFGHFEYWGQGTLVTVSS VL: SYELTQPPSVSVSPGQTARITCSGDALPKQYAYWYQQKAGQAPVLVIYKDSERRSGIPERFSGSSSGTTVTLTISGVQAEDEADYYCQSADSSGTSVVFGGGTKLTVL | 1.04
7 | antibody 443 (antibody, V domains shown) VH: QMRLEESGPGLVKPSETLSLTCTVAGGSITSSDYFWGWLRQSPGKGLEWIASTYHGGSIQYHPALKSRVTISVDASKNQISLRLSSVTAADTAVYYCARDRGDDGPMGTYYFDHWGQGALVTVSS VL: QSVLTQPPSVSGAPGQSVTISCAGSSSNIGAGHDVHWYQQIPGTAPKLLICGNTNRPSGVPERFSGSRSGTSASLAITGLQAEDEAVYYCQSYDPSHVFFGTGTKLTVL | 1.03
8 | antibody 477 (antibody, V domains shown) VH: QVQLVESGGGVVQPGRSLRLSCAASGITFSSYAMHWVRQAPGKGLEWVAVISYDGSDKYHADSVKGRFAISRDNSKNTLYLQMNSLRAEDTAVYYCAKDKGIAVAGTGWIRPDPEYYFDYWGQGTLVTVSS VL: not shown | 1.3
9 | antibody 454 (antibody, V domains shown) VH: QVQLVQSGAEVKKPGASLKVSCKASGYIFTGYYMHWVRQAPGQGLEWMGWISPNSGGTKYAQKFQGRVTMTRDTSISTAYMELSRLRSDDSAVYYCAREPYYDILTGYYTPRRYLDYWGQGTLVTVSS VL: QSALTQPASVSGSPGQSITISCTGTSSDVGDYNYVSWYQQHPGKVPKLMIYDVSHRPSGVTNRFSGSKSGNTASLTISGLRAEDEADYYCSSYTSSSTYVFGTGTKVTVL | 1.1
10 | antibody 452 (antibody, V domains shown) VH: QVQLVESGGGLVKPGGSLRLSCAASGFTFSDYYLSWIRQAPGKGLEWVSYISSSGSNIYYADSVKGRFTISRDNAKNSLYLQMNSLRADDTAVFYCARAGRYCSGGSCRVEYFQHWGQGTLVTVSS VL: SYELTQPPSVSVSPGQTARITCSGDALPKQYAYWYQQKPGQAPVLVIYKDNERPSGIPERFSGSSSGTTATLTISGVQAEDEADYYCQSADSSGTVVFGGGTKLTVL | 1.09
11 | antibody 475 (antibody, V domains shown) VH: QVQLVESGGGVVQPGRSLRLSCAASGFTFSSYAMHWVRQAPGKGLEWVTFISHEGSNKYYADSVKGRFTISRDNSKNTLYLQMNSLRAEDTAVYYCARTFEYSSSSATGDFDYWGQGTLVTVSS VL: QSVLTQPPSVSGAPGQRVTISCTGSSSNIGAGYDVHWYQQLPGTAPKLLIYGNSNRPSGVPDRFSGSKSGTSASLAITGLQAEDEADYYCQSYDSSLSGVVFGGGTKLTVL | 1.18
12 | antibody 474 (antibody, V domains shown) VH: EVQLVESGGGLVQPGGSLRLSCAASGFTFSSYWMHWVRQAPGKGLVWVSRINSDGSSTSYADSVKGRFTISRDNAKNTLYRQMNSLRAEDTAVYYCALGPLDIVGSYYYYGMDVWGQGTTVTVSS VL: NFMLTQPHSVSESPGKTVTISCTGSSGSIASNYVQWYQQRPGSAPTTVIYEDNQRPSGVPDRFSGSIDSSSNSASLTISGLKTEDEADYYCQSYDSSNQDVVFGGGTKLTVL | 1.1

molecular target: SARS-CoV full length Spike protein, wild type, expressed on CHO cells (SARS-CoV, UniProt P59594 14-1255); assay: not given

Row | Binder | median fluorescence intensity, fold over isotype control
13 | anti-SARS-CoV-2 antibody 1585 (antibody, V domains shown) VH: QVQLVESGGGVVQPGRSLRLSCAASGFTFSRFTLHWVRQAPGKGLEWVAVISYDGSNKYYADSVKGRFTISRDNSKSTLYLQMNSLRAEDTGVYYCARDPSTVTGYFDYWGQGTLVTVSS VL: SYVLTQPPSVSVAPGKTAKISCGGDSIGSKSVHWYQQKPGQAPVLVIYYDNDRPSGIPERFSGSNSGNTATLTISRVEAGDEADYYCQVWDIGVVFGGGTKLTVLG | 19.9 fold over isotype
14 | anti-SARS-CoV-2 antibody 970 (antibody, V domains shown) VH: EVQLVESGGGLVQPGGSLRLSCAASGFTFSSYWMSWVRQAPGKGLEWVANINKDGSEKYYVDSVKGRFTISRDNAKNSLYLQMNSLRAEDTAVYFCARDYRYFDWLLSQIDLEIDYFDYWGQGTLVTVSS VL: not shown | 124 fold over isotype
15 | anti-SARS-CoV-2 antibody 1037 (antibody, V domains shown) VH: QITLKESGPTLVKPTQTLTLTCTFSGFSLSTSGVGVGWIRQPPGKALEWLALIYWDDDKRYSPSLKSRLTITKDTSKNQVVLTMTNMDPVDTATYYCAHHTITRINDYWGQGTLVTVSS VL: QSALTQPASVSGSPGQSITISCTATSSDVGAYNYVSWYQQHPGKAPKLMIYDVSKRPSGVSNRFSGSKSGNTASLTISGLQAEDEADYYCSSYTSSSTVFGGGTKLTVLG | 23.1 fold over isotype
16 | anti-SARS-CoV-2 antibody 923 (antibody, V domains shown) VH: EVQLVESGGGVVRPGGSLRLSCAASGFIFDDYDMTWVRQAPGKGLEWVSGISWNGGNTGYADSVKGRFTISRDNAKNSLYLQMNSLRAEDTALYHCAVIMSPIPRYSGYDWAGGAFDIWGQGTMVTVSS VL: SSELTQDPAVSVALGQTVRITCQGDSLRSYYASWYQQKPGQVPILVIYDKNNRPSGIPDRFSGSSSGNTASLTITGAQAEDEADYYCNSRDSSGNAVVFGGGTKLTVLG | 118 fold over isotype

molecular target: SARS-CoV-2 full length Spike protein, wild type, expressed on CHO cells (SARS-CoV-2, UniProt P0DTC2 14-1273); assay: not given

Row | Binder | median fluorescence intensity, fold over isotype control
17 | anti-SARS-CoV-2 antibody 1585 (antibody, V domains shown) VH: QVQLVESGGGVVQPGRSLRLSCAASGFTFSRFTLHWVRQAPGKGLEWVAVISYDGSNKYYADSVKGRFTISRDNSKSTLYLQMNSLRAEDTGVYYCARDPSTVTGYFDYWGQGTLVTVSS VL: SYVLTQPPSVSVAPGKTAKISCGGDSIGSKSVHWYQQKPGQAPVLVIYYDNDRPSGIPERFSGSNSGNTATLTISRVEAGDEADYYCQVWDIGVVFGGGTKLTVLG | 9.55 fold over isotype
18 | anti-SARS-CoV-2 antibody 970 (antibody, V domains shown) VH: EVQLVESGGGLVQPGGSLRLSCAASGFTFSSYWMSWVRQAPGKGLEWVANINKDGSEKYYVDSVKGRFTISRDNAKNSLYLQMNSLRAEDTAVYFCARDYRYFDWLLSQIDLEIDYFDYWGQGTLVTVSS VL: not shown | 20.6 fold over isotype
19 | anti-SARS-CoV-2 antibody 1037 (antibody, V domains shown) VH: QITLKESGPTLVKPTQTLTLTCTFSGFSLSTSGVGVGWIRQPPGKALEWLALIYWDDDKRYSPSLKSRLTITKDTSKNQVVLTMTNMDPVDTATYYCAHHTITRINDYWGQGTLVTVSS VL: QSALTQPASVSGSPGQSITISCTATSSDVGAYNYVSWYQQHPGKAPKLMIYDVSKRPSGVSNRFSGSKSGNTASLTISGLQAEDEADYYCSSYTSSSTVFGGGTKLTVLG | 83 fold over isotype
20 | anti-SARS-CoV-2 antibody 923 (antibody, V domains shown) VH: EVQLVESGGGVVRPGGSLRLSCAASGFIFDDYDMTWVRQAPGKGLEWVSGISWNGGNTGYADSVKGRFTISRDNAKNSLYLQMNSLRAEDTALYHCAVIMSPIPRYSGYDWAGGAFDIWGQGTMVTVSS VL: SSELTQDPAVSVALGQTVRITCQGDSLRSYYASWYQQKPGQVPILVIYDKNNRPSGIPDRFSGSSSGNTASLTITGAQAEDEADYYCNSRDSSGNAVVFGGGTKLTVLG | 59 fold over isotype

molecular target: SARS-CoV-2 Spike protein (SARS-CoV-2, UniProt P0DTC2 14-1208); assay: HT-SPR (Carterra LSA), mAb coupled to chip, Spike in solution, 1:1 Langmuir fit

Row | Binder | Kd | koff | kon
21 | mAb 1585 (antibody, V domains shown, human IgG1) VH: QVQLVESGGGVVQPGRSLRLSCAASGFTFSRFTLHWVRQAPGKGLEWVAVISYDGSNKYYADSVKGRFTISRDNSKSTLYLQMNSLRAEDTGVYYCARDPSTVTGYFDYWGQGTLVTVSS VL: SYVLTQPPSVSVAPGKTAKISCGGDSIGSKSVHWYQQKPGQAPVLVIYYDNDRPSGIPERFSGSNSGNTATLTISRVEAGDEADYYCQVWDIGVVFGGGTKLTVLG | ≤ 0.0171 nM | ≤ 1e-05 s⁻¹ | 586000 M⁻¹ s⁻¹
22 | mAb 1444 (antibody, V domains shown, human IgG1) VH: QVQLVQSGAEVKKPGASVKVSCKASGYTFTAYYMHWVRQAPGQGLEWMGWINPNSDDTNYAQKFQGRVTMTRDTSISTAYMELSRLRSDDTAVYYCAREEGVFTIGDRYFDLWGRGTLVSVSS VL: QTVVTQEPSFSVSPGGTVTLTCGLSSGSVSTSYYPSWYQQTPGQAPRTLIYNTNTRSSGVPDRFSGSILGNKAALTITGAQADDESDYYCVLYMGSGIWVFGGGTKLTVLG | ≤ 0.0221 nM | ≤ 1e-05 s⁻¹ | 453000 M⁻¹ s⁻¹
23 | mAb 1538 (antibody, V domains shown, human IgG1) VH: EVQLLESGGGLVQPGGSLRLSCAASGFTFSSYAMSWVRQAPGKGLEWVSGISDSGGSTYYADYVKGRFTISRDNSKDTLYLQMNSLRAEDTAVYYCAKDRGNEYALTHYYYYAMDVWGQGTTVTVSS VL: DIQMTQSPSSLSASVGDRVTITCRASQSISSYLNWYQQKPGKAPKLLIYAAYSLQSGVPSRFSGGGSGTDFTLTISSLQPEDFATYFCQQSYSTPITFGQGTRLEIKR | ≤ 0.0754 nM | ≤ 1e-05 s⁻¹ | 133000 M⁻¹ s⁻¹
24 | mAb 1495 (antibody, V domains shown, human IgG1) VH: QVQLVESGGGVVQPGRSLRLSCTASGFTFSSYAMHWVRQAPGKGLEWVAVISYDGNNKYYGDSVKGRFTISRDNSKNTLYLQMNSLRAEDTAVYYCAKGADTPHYSGYHFLSVGYYFYGMDVWGQGTTVTVSS VL: DIQMTQSPSSLSASVGDRVTITCRASQSISYYLNWYQQKPGKAPQLLIYAASSLQSGVPSRFSGSRSGTDFTLTISSLQPEDFATYYCQQSYSTPFTFGPGTKVDIKR | 0.0972 nM | 1.01e-05 s⁻¹ | 103000 M⁻¹ s⁻¹
